Changes are numbered by the printed parent chain. One block for each binder: values may come before it.
Columns and labels:
[1] = target: T1, Recombinant mouse VEGF165 (mouse, UniProt Q00731-2 27-190); test: SPR (Biacore 2000), biotinylated mouse VEGF165 on streptavidin chip, antibody as analyte
T1 construct: also called mVEGF
T1 sequence (looked up): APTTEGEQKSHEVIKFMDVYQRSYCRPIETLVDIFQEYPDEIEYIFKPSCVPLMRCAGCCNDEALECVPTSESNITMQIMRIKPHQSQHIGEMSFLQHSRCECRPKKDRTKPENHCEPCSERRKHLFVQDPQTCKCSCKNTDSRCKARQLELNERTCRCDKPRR
Protocol: (§1) The KDs of parental antibodies anti-VEGF 219R45 (IgG format), anti-DLL4 21R79 (IgG format), anti-DLL4 21M18 (IgG format) and bispecific antibodies 219R45-MB-21M18 and 219R45-MB-21R79 were determined using a Biacore 2000 system from Biacore LifeSciences (GE Healthcare). Recombinant human DLL4-Fc or mouse DLL4-Fc proteins were immobilized on CM5 carboxyl chips using standard amine-based chemistry (NHS/EDC) and blocked with ethanolamine Recombinant human VEGF₁₆₅ or mouse VEGF₁₆₅ were biotinylated and immobilized on streptavidin chips. The antibodies were serially diluted 2-fold from 100 nM to 0.78 nM in HBS-P (0.01M HEPES pH7.4, 0.15M NaCl, 0.005% v/v Polysorbate 20). For each antibody, all 8 dilutions were sequentially injected over a specific chip. Kinetic data were collected over time and were fit using the simultaneous global fit equation to yield affinity constants (KD values) for each bispecific antibody.

[2] = target: T2, Recombinant human DLL4-Fc (human, UniProt Q9NR61 27-522, limits assumed); test: HTRF bridging assay: Europium cryptate-labeled hVEGF165 and d2-labeled hDLL4-Fc; signal needs both bound at once
T2 construct: also called hDLL4; hDLL4-Fc; not shown: Fc portion
T2 sequence (Q9NR61 27-522 limits assumed): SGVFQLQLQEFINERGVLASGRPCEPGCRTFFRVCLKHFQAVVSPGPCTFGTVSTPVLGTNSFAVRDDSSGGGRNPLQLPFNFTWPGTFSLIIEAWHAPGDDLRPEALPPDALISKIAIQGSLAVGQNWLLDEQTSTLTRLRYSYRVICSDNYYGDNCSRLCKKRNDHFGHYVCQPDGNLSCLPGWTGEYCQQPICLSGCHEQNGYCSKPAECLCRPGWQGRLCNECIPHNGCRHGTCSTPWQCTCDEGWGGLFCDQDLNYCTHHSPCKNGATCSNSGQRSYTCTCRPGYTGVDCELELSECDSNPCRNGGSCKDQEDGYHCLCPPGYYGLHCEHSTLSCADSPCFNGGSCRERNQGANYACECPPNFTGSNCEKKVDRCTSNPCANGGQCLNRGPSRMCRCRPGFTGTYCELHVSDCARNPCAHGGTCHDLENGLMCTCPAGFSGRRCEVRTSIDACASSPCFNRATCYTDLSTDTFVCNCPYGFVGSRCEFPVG
Protocol: (§2) To characterize the binding capabilities of certain antibodies and/or antibody mixtures to both VEGF and DLL4, homogeneous time resolved fluorescence (HTRF) assays were performed. Antibodies tested were anti-VEGF/anti-DLL4 bispecific antibodies 219R45-MB-21M18 and 219R45-MB-21R79, parental antibodies 219R45 (anti-VEGF), 21M18 (anti-DLL4), 21R79 (anti-DLL4), a combination of 219R45 and 21M18, or a combination of 219R45 and 21R79. The antibodies or antibody mixtures were serially diluted 2-fold from 3000 nM to 2.9 nM in binding buffer (1×PBS, 0.1% gelatin, 0.1% Polysorbate 20, 400 mM potassium fluoride) and placed in a white 96-well plate. An equal volume of solution containing 4 μg/ml of d2-labeled hDLL4-Fc and 21.4 ng/ml Europium crypate-labeled hVEGF₁₆₅ was added to each well for a final volume of 100 μl (final concentrations of acceptor and donor fluorophores were 2 μg/ml and 10.7 ng/ml, respectively). The assay plates were incubated for 2 hours to overnight and read on a SpectraMax M5e Microplate reader (Molecular Devices, Sunnyvale Calif.) at an excitation wavelength of 314 nm.

[3] = target: T3, Recombinant human VEGF165 (human, UniProt P15692-4 27-191); test: SPR (Biacore 2000), biotinylated human VEGF165 on streptavidin chip, antibody as analyte
T3 construct: also called hVEGF; hVEGF165
Protocol: as §1

[4] = target: T2, Recombinant human DLL4-Fc; test: SPR (Biacore 2000), human DLL4-Fc amine-coupled on CM5 chip, antibody as analyte
Protocol: as §1

[5] = target: T3, Recombinant human VEGF165; test: HTRF bridging assay: Europium cryptate-labeled hVEGF165 and d2-labeled hDLL4-Fc; signal needs both bound at once
Protocol: as §2

Kd [1]: 22.9 nM
binding result [2]: no binding
Kd [3]: 0.67 nM
B1: anti-VEGF antibody 219R45 (parental, IgG format) (antibody, V domains shown)
VH: QVQLVQSGAEVKKPGASVKVSCKASGYTFTNYWMHWVRQAPGQGLEWMGDINPSNGRTSYKEKFKRRVTLSVDKSSSTAYMELSSLRSEDTAVYFCTIHYDDKYYPLMDYWGQGTLVTVSS
VL: DIVMTQSPDSLAVSLGERATISCRASESVDNYGISFMKWFQQKPGQPPKLLIYAASNQGSGVPDRFSGSGSGTDFTLTISSLQAEDVAVYYCQQSKEVPWTFGGGTKVEIKR
notes: Tested as the bivalent parental antibody in IgG format; also called parental anti-VEGF antibody 219R45

Kd [4]: < 0.1 nM
binding result [5]: no binding
B2: anti-DLL4 antibody 21R79 (parental, IgG format) (antibody, V domains shown)
VH: QVQLVQSGAEVKKPGASVKISCKASGYSFTAYYIHWVKQAPGQGLEWIGYIANYNRATNYNQKFKGRVTFTTDTSTSTAYMELRSLRSDDTAVYYCARDYDYDVGMDYWGQGTLVTVSS
VL: B1 VL
notes: Tested as the parental antibody in IgG format
binding result [1]: no binding (tested: 100 nM (highest concentration injected))

Kd [4]: < 0.1 nM
binding result [5]: no binding
B3: anti-DLL4 antibody 21M18 (parental, IgG format) (antibody, V domains shown)
VH: B2 VH with A52S, N53S, R56G
VL: DIVMTQSPDSLAVSLGERATISCRASESVDNYGISFMKWFQQKPGQPPKLLIYAASNQGSGVPDRFSGSGSGTDFTLTISSLQAEDVAVYYCQQSKEVPWTFGGGTKVEIK
notes: Tested in IgG format; also called anti-hDLL4 antibody 21M18
binding result [1]: no binding (tested: 100 nM (highest concentration injected))

— US20180305449A1 (ONCOMED PHARMACEUTICALS, published 2018)
